Measured values as given in patent publication US20130133108A1, “EXTRACTS FROM PIRIN+ AND PIRIN- PLANTS AND USES THEREOF” (priority 2010, published 2013).

T1: In vitro-translated AtGPA1 pre-incubated with GDPalphaS (permanently inactive conformation) (Arabidopsis thaliana, UniProt P18064 1-383)
T1 construct: Same polypeptide as m2 but a different nucleotide state; also called GPA1-GDPalpha
T1 sequence (looked up): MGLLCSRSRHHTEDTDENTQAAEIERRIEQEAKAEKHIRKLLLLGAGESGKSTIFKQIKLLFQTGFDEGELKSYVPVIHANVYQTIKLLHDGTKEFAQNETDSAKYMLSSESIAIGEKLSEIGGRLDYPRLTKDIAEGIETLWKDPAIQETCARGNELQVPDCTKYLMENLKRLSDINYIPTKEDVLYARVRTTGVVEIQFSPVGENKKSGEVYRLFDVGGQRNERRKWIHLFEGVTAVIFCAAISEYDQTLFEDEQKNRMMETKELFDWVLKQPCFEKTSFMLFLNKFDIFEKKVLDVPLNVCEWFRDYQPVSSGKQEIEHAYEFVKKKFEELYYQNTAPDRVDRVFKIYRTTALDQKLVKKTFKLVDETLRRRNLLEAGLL

T2: In vitro-translated AtGPA1 pre-incubated with GTPgammaS (permanently activated conformation) (Arabidopsis thaliana, UniProt P18064 1-383)
T2 construct: Same polypeptide as m3 but a different nucleotide state; also called GPA1-GTPgammaS
T2 sequence (looked up): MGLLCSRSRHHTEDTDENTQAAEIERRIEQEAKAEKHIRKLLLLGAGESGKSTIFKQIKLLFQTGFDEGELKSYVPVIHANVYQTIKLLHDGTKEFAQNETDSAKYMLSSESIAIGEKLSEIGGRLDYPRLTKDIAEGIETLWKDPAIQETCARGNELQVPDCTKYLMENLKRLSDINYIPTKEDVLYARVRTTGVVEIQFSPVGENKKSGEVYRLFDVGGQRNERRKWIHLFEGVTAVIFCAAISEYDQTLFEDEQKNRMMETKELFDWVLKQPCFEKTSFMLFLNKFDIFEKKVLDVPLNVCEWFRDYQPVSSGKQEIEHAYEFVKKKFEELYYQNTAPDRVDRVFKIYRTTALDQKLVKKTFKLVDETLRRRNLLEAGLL


Legend:
animal cells = settings: reported, no source named; cited from earlier work
[1] = target: T1, In vitro-translated AtGPA1 …; experiment: in vitro association/activity assay, GPA1:Pirin1 1:1, association inferred from the quercetin absorbance spectrum
Method: (§1) Translated Pirin1 was prepared as described above and in vitro association assays were conducted in assay buffer (pre-incubations included magnesium) at 26° C. (Adams and Jai, J. Biol. Chem. 280(31):28675-82, 2005; Warpeha et al., Plant Physiol. 140:844-55, 2006). GPA1 was incubated with Pirin1 in a 1:1 ratio. “Activated” Pirin1 was achieved by pre-incubation with 100 μM GTPγS (a non-hydrolysable GTP analog). “Inactivated” Pirin1 was achieved by pre-incubation with GDP, or GDPγS (a non-hydrolysable GDP analog). Both pre-incubations occurred overnight in darkness at 10° C.
(§2) The observed AtPirin1 quercetinase activity is regulated through its' interactions with GPA. […] AtGPA1 bound to one of the two non-hydrolyzable analogs was then incubated with AtPirin1 and quercetin in conditions identical to that for FIG. 1.

[2] = target: T2, In vitro-translated AtGPA1 …; experiment: in vitro association/activity assay, GPA1:Pirin1 1:1, interaction inferred from loss of quercetinase activity
Method: as §1, §2

[3] = Quercetinase (quercetin 2,3-dioxygenase) activity of in vitro-translated AtPirin1, absorbance spectrum; assay type: biochemical, Arabidopsis thaliana
Method: Full-length PIRIN1 template was prepared, amplified and purified by the methods described (Lapik and Kaufman, Plant Cell. 15(7):1578-90, 2003; Warpeha et al., Plant Physiol. 140:844-55, 2006). Pirin1 proteins were individually produced by coupled in vitro transcription/translation using TNT T7 Coupled Wheat Germ Extract System (Promega; Madison, Wis.) as directed and as modified previously (Warpeha et al., Plant Physiol. 140:844-55, 2006). Translated Pirin1 was subsequently incubated with quercetin in complete darkness in a 26° C. circulating water bath for 15 minutes.
The quercetin 2,3-dioxygenase activity of Pirin1 was determined as described in Adams and Jai (J. Biol. Chem. 280(31):28675-82, 2005). Briefly, the quercetin 2,3-dioxygenase activity of pirin wase assayed at 295 K for 5 min in a reaction mixture containing 50 mm NaH2PO4, pH 8.0, 300 mm NaCl, 60 μm quercetin in Me2SO, and 18.5 nm enzyme. Activity was observed by following the decrease in the absorbance maximum for quercetin, which occurs at 384 nm at pH 8.0. The inhibitors kojic acid, sodium diethyldithiocarbamate, and 1,10-phenanthroline monohydrochloride were dissolved in Me2SO and added to the reactions at a final concentration of 50 nm.
as §1

binding result [1] | binding result [2] | absorbance peak of quercetin with AtPirin1 and inactivated conformation of AtGPA1 ([3]; AtGPA1 pre-incubated with non-hydrolysable GDP analog, FIG. 2) | absorbance peak of quercetin after addition of AtPirin1 ([3]; AtPirin1 alone, within 15 min at 26° C., quercetin alone 384 nm) | Molecule | concentration considered toxic in animal cells (animal cells) | quercetinase activity with activated conformation of AtGPA1 ([3]; AtGPA1 pre-incubated with GTPγS, FIG. 2) | quercetinase activity (cleavage of quercetin) ([3]; AtPirin1 alone with quercetin, 15 min at 26° C., FIG. 1)
– | – | – | – | O=c1c(O)c(-c2ccc(O)c(O)c2)oc2cc(O)cc(O)c12 [quercetin] | above 20 μM | – | –
binds | binds | 405-410 nm | 405-410 nm | Arabidopsis thaliana Pirin1 (AtPirin1), in vitro-translated (enzyme, also called PRN1; Prn1) MTYENNSVPRIVIKKVLAKLEKEGEGAVVRNGITKIDQKLLDPFVLLVEFSFSLSAGFPDHPHRGFESVTYMLQGGIIHKDPKGHKGTIQAGDVQWMTAGRGIIHSEFPEEEVNNGLQLWINLPSTEKMTEPKYKELSSLDIPRAEENGVEVKVIAGDSMGIKSPVYTRTPTMFLDFTLKPGSQTHQTVPESWTAFAYIIEGDEGVFGSLNSSAISAHHVVVFGPGDLVSVWNKSTSRSLRFLLIAGEPIGEPVVQCGPFVMNSQAEIDMAFDDYQNAKNGFEMAKC | – | no quercetinase activity | specific cleavage of quercetin
